The values that follow come from patent publication US20110088129A1.

The term Kd denotes the free concentration of one partner at which half of the binding sites on the other are occupied at equilibrium, for simple one-to-one binding. Low values mean a tighter complex, high ones a looser complex.

The target of assay [1] is binding sites in brush border membrane vesicles (BBMV) from midguts of last instar Helicoverpa armigera larvae (Helicoverpa armigera). Nature of the assay: homologous competition on H. armigera BBMV.
Assay [2] has the same target. In words: direct saturation assay, increasing 125I-Cry2Ab on fixed H. armigera BBMV (0.2 mg/ml).
Assay [3] deals with binding sites in brush border membrane vesicles (BBMV) from midguts of last instar Helicoverpa zea larvae (Helicoverpa zea). Nature of the assay: homologous competition on H. zea BBMV.
The target is the same in assay [4]. In words: homologous competition, 125I-Cry2Ab on H. zea BBMV, LIGAND program.
Assay [5] concerns the target binding sites in brush border membrane vesicles (BBMV) from midguts of last instar Helicoverpa armigera larvae (Helicoverpa armigera). Nature of the assay: homologous competition, 125I-Cry2Ab on H. armigera BBMV, LIGAND program.

B1: Cry2Ab toxin (trypsin-activated Cry2Ab2 from recombinant B. thuringiensis strain BtIPS78/11) (ligand)
chain: NAVPLSITSSVNTMQQLFLNRLPQFQMQGYQLLLLPLFAQAANLHLSFIRDVILNADEWGISAATLRTYRDYLKNYTRDYSNYCINTYQSAFKGLNTRLHDMLEFRTYMFLNVFEYVSIWSLFKYQSLLVSSGANLYASGSGPQQTQSFTSQDWPFLYSLFQVNSNYVLNGFSGARLSNTFPNIVGLPGSTTTHALLAARVNYSGGISSGDIGASPFNQNFNCSTFLPPLLTPFVRSWLDSGSDREGVATVTNWQTESFETTLGLRSGAFTARGNSNYFPDYFIRNISGVPLVVRNEDLRRPLHYNEIRNIASPSGTPGGARAYMVSVHNRKNNIHAVHENGSMIHLAPNDYTGFTISPIHATQVNNQTRTFISEKFGNQGDSLRFEQNNTTARYTLRGNGNSYNLYLRVSSIGNSTIRVTINGRVYTATNVNTTTNNDGVNDNGARFSDINIGNVVASSNSDVPLDINVTLNSGTQFDLMNIMLVPTNISPLY
modifications: 125I label (chloramine T method) where used as the labelled ligand
For B1, in assay [1], the fold difference in concentration of binding sites between Cry2Ab and Cry1Ac came to 3 fold; the fold higher Kd than Cry1Ac amounted to 35 fold. In assay [2], this molecule displayed a concentration at which binding reached a maximum of 20 nM and a concentration at which the saturation curve deviated from linearity of 5 nM. In assay [3], this molecule gave a fold difference in concentration of binding sites between Cry2Ab and Cry1Ac of 3 fold; a fold higher Kd than Cry1Ac of 35 fold. In assay [4], this molecule gave a Kd of 5.9 nM and a Rt (binding site concentration) (pmol/mg BBMV protein) of 2.7. In assay [5], this molecule had a dissociation constant (Kd) of 3.1 nM and a Rt (binding site concentration) (pmol/mg BBMV protein) of 2.5.
